From patent US10428308B2, “Mesoderm and definitive endoderm cell populations” (Icahn School of Medicine at Mount Sinai, priority 2005, dated 2019)

Experiments:
[1] = system: ALK4, 5, and 7; settings: Inman et al. (2002); cited from earlier work
[2] = system: CD4-HNF/GFP-T ES cells; assay: Activin A / Wnt3a induction of ES derived primitive streak like cells in serum free culture, with pathway inhibitors; assay type: cell-based, mouse; settings: for development of GFP^+ CD4^+ cells with either inducer (activin or Wnt): DKK1 100 ng/ml or SB-431542 6 uM
Method: FIGS. 34A, 34B and 34C depict ES cells differentiated in serum free conditions with Activin A Wnt3a and/or inhibitors of these pathways. ES cells were cultured in serum free media for two days then trypsinized to obtain a single cell population. These cells were then reaggregated with the indicated conditions. At day six, the EBs were plated on matrigel coated dishes in serum free media.
Liu et. al. (1999) Nat. Genet. 22: 361-4. […] Activin stimulation leads to high levels of CD4 expression that persist after loss of GFP-Bry expression at day 6. […] Wnt does however stimulate expression of the posterior primitive streak markers HoxBI and Tbx6, while activin only induces Tbx6. […] At day 6, EBs that were stimulated with either activin or Wnt3a were plated on matrigel in serum free media to allow further development.
Considering that Wnt stimulation induces nodal and activin treatment induces Wnt3 (FIG. 34B), it is unknown whether activin/nodal signaling or Wnt Signaling alone can induce primitive streak formation or whether both factors are required together. CD4-HNF/GFP-T ES cells were induced with either activin or Wnt in conjunction with specific inhibitors of these pathways. DKK1 was used to inhibit Wnt signaling while the small molecule inhibitor SB-431542 (SB) was used to block Nodal/TGFβ signaling. DKK1 functions by binding the Wnt co-receptors, LRP5 and LRP6, which are essential for activation of the βcatenin signaling pathway. […] Inman et. al. (2002) MoI. Pharmacol. 62: 65-74. […] Therefore, to induce mesoderm and endoderm germ layers and their derivative tissues, both activin/Nodal and Wnt signals are required initially.

[3] = system: EBs (brachyury^+ cells); assay: BMP4 added to developing EBs in serum free cultures, GFP/Flk-1 expression; assay type: cell-based, mouse; settings: BMP4 20 ng/ml
Method: FIG. 8B depicts expression of brachyury and Flk-1 on cell populations generated from GFP+/Flk-1^− cells cultured for 20 hours under the indicated conditions.
To assess the role of serum in the development of brachyury^+ cells, EBs were differentiated the absence of serum. EBs did develop under these conditions, although they were somewhat smaller than those found in normal conditions. […] Significant numbers of GFP^+/Flk-1^− and GFP^+/Flk-1^+ cells did develop when serum was added to the cultures. […] As a first step in identifying factors that might play a role in this process, BMP4 (20 ng/ml) was added to the developing EBs in the serum free cultures. […] To determine if BMP4 could induce GFP^+/Flk-1^+ from GFP^+/Flk-1^− cells that were induced in the presence of serum, GFP^+/Flk-1^− cells were isolated from EBs differentiated for three days in the presence of serum. These cells were reaggregated in medium alone, in medium with serum or in medium with BMP4. […] As expected, the same population generated a large GFP^+/Flk-1^+ population when serum was added to the cultures. Consistent with the findings in the primary differentiation cultures, BMP4 was unable to induce the development of significant numbers of GFP^+/Flk-1^+ cells from the cultured GFP^+/Flk-1^− cells.

[4] = system: GFP^+ hCD4^med cells from CD4-HNF/GFP-T ES cells; assay: Reaggregation of sorted GFP^+ hCD4^med cells in serum free media with DKK1 and/or activin; assay type: cell-based, mouse
Method: FIGS. 35A and 35B depict, the effects of DKK1 and activin on EB differentiation. EBs differentiated and sorted as in FIG. 32 for GFP^+ hCD4^med were allowed to reaggregate in serum replacement containing media alone or with the addition of human DKK1 100 ng/ml, activin 100 ng/ml, or both factors together. […] FIG. 35B depicts endodermal gene expression by RT PCR. The sorted populations were treated as indicated above for 2 days, then plated on matrigel in serum free media without factors added. Gene expression was analyzed an additional 5 days after plating.
Nodal, a key molecule involved in mesoderm/endoderm induction in vivo, signals through the same receptors as activin. It is also known that Nodal as well as inhibitors for Wnt signaling are expressed preferentially in or around the anterior primitive streak. Considering that the endoderm forms from the anterior primitive streak, it is possible that nodal/activin signaling in combination with inhibition of Wnt signals induces endoderm formation. To test this hypothesis, CD4-HNF/GFP-T ES cells were differentiated for 3.25 days in serum and GFP^+ hCD4^med cells were sorted and reaggregated in serum free media with no factor, DKK1 (Wnt inhibitor), activin, or activin and DKK1. The effect of these culture conditions on hCD4-HNF3β and GFP-Bry levels were analyzed by flow cytometry (FIG. 35A). With serum free media alone, hCD4 expression was lost after 1 day reaggregation. […] To further test this idea, sorted cells reaggregated for two days in the culture conditions above were washed with serum free media without factors and plated onto martrigel in serum free media. After 5 days, the cultures were harvested and gene expression determined by RT PCR. […] These culture conditions have the potential to allow the large scale production of endodermal derived tissues such as the pancreas and liver.

## NC(=O)c1ccc(-c2nc(-c3ccc4c(c3)OCO4)c(-c3ccccn3)[nH]2)cc1 [SB-431542]
[1]
  effect on BMP signaling: does not, however, block BMP signaling
  receptor specificity: specific inhibitor of the receptors ALK4, 5, and 7
[2]
  development of GFP^+ CD4^+ cells with either inducer (activin or Wnt): completely blocked

B1: Wnt3a: recombinant Wnt3a (protein, UniProt P56704 19-352, looked up)
Protein Wnt-3a: SYPIWWSLAVGPQYSSLGSQPILCASIPGLVPKQLRFCRNYVEIMPSVAEGIKIGIQECQHQFRGRRWNCTTVHDSLAIFGPVLDKATRESAFVHAIASAGVAFAVTRSCAEGTAAICGCSSRHQGSPGKGWKWGGCSEDIEFGGMVSREFADARENRPDARSAMNRHNNEAGRQAIASHMHLKCKCHGLSGSCEVKTCWWSQPDFRAIGDFLKDKYDSASEMVVEKHRESRGWVETLRPRYTYFKVPTERDLVYYEASPNFCEPNPETGSFGTRDRTCNVSSHGIDGCDLLCCGRGHNARAERRREKCRCVFHWCCYVSCQECTRVYDVHTCK
[2]; day 6 EBs plated on matrigel a further 6 days, serum free
  endodermal gene expression (Alb, Aat, HNF4, Pdxl) by RT-PCR: did not express any of these markers
[2]; serum free, Activin A 25 ng/ml or Wnt3a 100 ng/ml
  induction of GFP^+ CD4^+ cells: initially induce GFP^+ CD4^+ cells

B2: BMP4: growth factor purchased from R&D systems (protein, UniProt P12644 293-408, looked up)
Bone morphogenetic protein 4: SPKHHSQRARKKNKNCRRHSLYVDFSDVGWNDWIVAPPGYQAFYCHGDCPFPLADHLNSTNHAIVQTLVNSVNSSIPKACCVPTELSAISMLYLDEYDKVVLKNYQEMVVEGCGCR
[3]; serum free primary differentiation cultures
  development of GFP^+/Flk-1^+ population: did not support the development of the GFP^+/Flk-1^+ population
[3]; serum free, within 3 days of differentiation
  induction of brachyury^+ cells: induce a significant population of brachyury^+ cells

B3: DKK1: Wnt signaling inhibitor binding the Wnt co-receptors LRP5 and LRP6 (protein, UniProt O94907 32-266, looked up)
Dickkopf-related protein 1: TLNSVLNSNAIKNLPPPLGGAAGHPGSAVSAAPGILYPGGNKYQTIDNYQPYPCAEDEECGTDEYCASPTRGGDAGVQICLACRKRRKRCMRHAMCCPGNYCKNGICVSSDQNHFRGEIEETITESFGNDHSTLDGYSRRTTLSSKMYHTKGQEGSVCLRSSDCASGLCCARHFWSKICKPVLKEGQVCTKHRRKGSHGLEIFQRCYCGEGLSCRIQKDHHQASNSSRLHTCQRH
[4]; 2 days treatment, then 5 days on matrigel without factors
  endoderm gene expression by RT PCR (pancreas, liver, intestine genes): None of these genes were detected
[4]; after 1 day reaggregation, DKK1 100 ng/ml, activin 100 ng/ml
  hCD4 (HNF3β) level by flow cytometry: allowed some cells to retain low levels of hCD4
[2]
  development of GFP^+ CD4^+ cells with either inducer (activin or Wnt): completely blocked
